Experimental findings from ChEMBL document CHEMBL1275523 are described below.

Holding throughout (type): cell-based
Substrate in data set [1]: CC(=O)N[C@H]1[C@H]([C@H](O)[C@H](O)CO)O[C@@](Oc2ccc3c(C)cc(=O)oc3c2)(C(=O)O)C[C@@H]1O
Kind of data set: Activity of human NEU2 expressed in HEK293 cells by fluorometric high-performance liquid chromatography.

Substrate in data set [2]: CC(=O)N[C@H]1[C@H]([C@H](O)[C@H](O)CO)O[C@@](Oc2ccc3c(C)cc(=O)oc3c2)(C(=O)O)C[C@@H]1O
The data set is described as follows: Activity of human NEU4 expressed in HEK293 cells by fluorometric high-performance liquid chromatography.

Substrate in data set [3]: CCCCCCCCCCCCC/C=C/[C@@H](O)[C@H](CO[C@@H]1O[C@H](CO)[C@@H](O[C@@H]2O[C@H](CO)[C@H](O)[C@H](O[C@]3(C(=O)O)C[C@H](O)[C@@H](NC(C)=O)[C@H]([C@H](O)[C@H](O)CO)O3)[C@H]2O)[C@H](O)[C@H]1O)NC(=O)CCCCCCCCCCCCCCCCCCCCCC
The data set is described as follows: Activity of human NEU3 expressed in HEK293 cells by fluorometric high-performance liquid chromatography.

B1: Sialidase-2 (Homo sapiens), Q9Y3R4 (protein)
chain: MASLPVLQKESVFQSGAHAYRIPALLYLPGQQSLLAFAEQRASKKDEHAELIVLRRGDYDAPTHQVQWQAQEVVAQARLDGHRSMNPCPLYDAQTGTLFLFFIAIPGQVTEQQQLQTRANVTRLCQVTSTDHGRTWSSPRDLTDAAIGPAYREWSTFAVGPGHCLQLHDRARSLVVPAYAYRKLHPIQRPIPSAFCFLSHDHGRTWARGHFVAQDTLECQVAEVETGEQRVVTLNARSHLRARVQAQSTNDGLDFQESQLVKKLVEPPPQGCQGSVISFPSPRSGPGSPAQWLLYTHPTHSWQRADLGAYLNPRPPAPEAWSEPVLLAKGSCAYSDLQSMGTGPDGSPLFGCLYEANDYEEIVFLMFTLKQAFPAEYLPQ
Broadly, the Km is the concentration of substrate that gives half-maximal velocity. In the case of B1, in data set [1], the Km was determined as 1800 µM.

B2: Sialidase-4 (Homo sapiens), Q8WWR8 (protein)
chain: MGVPRTPSRTVLFERERTGLTYRVPSLLPVPPGPTLLAFVEQRLSPDDSHAHRLVLRRGTLAGGSVRWGALHVLGTAALAEHRSMNPCPVHDAGTGTVFLFFIAVLGHTPEAVQIATGRNAARLCCVASRDAGLSWGSARDLTEEAIGGAVQDWATFAVGPGHGVQLPSGRLLVPAYTYRVDRRECFGKICRTSPHSFAFYSDDHGRTWRCGGLVPNLRSGECQLAAVDGGQAGSFLYCNARSPLGSRVQALSTDEGTSFLPAERVASLPETAWGCQGSIVGFPAPAPNRPRDDSWSVGPGSPLQPPLLGPGVHEPPEEAAVDPRGGQVPGGPFSRLQPRGDGPRQPGPRPGVSGDVGSWTLALPMPFAAPPQSPTWLLYSHPVGRRARLHMGIRLSQSPLDPRSWTEPWVIYEGPSGYSDLASIGPAPEGGLVFACLYESGARTSYDEISFCTFSLREVLENVPASPKPPNLGDKPRGCCWPS
Consider B2, for which, in data set [2], the Km was found to be 20.3 µM.

B3: Sialidase-3 (Homo sapiens), Q9UQ49 (protein)
chain: MEEVTTCSFNSPLFRQEDDRGITYRIPALLYIPPTHTFLAFAEKRSTRRDEDALHLVLRRGLRIGQLVQWGPLKPLMEATLPGHRTMNPCPVWEQKSGCVFLFFICVRGHVTERQQIVSGRNAARLCFIYSQDAGCSWSEVRDLTEEVIGSELKHWATFAVGPGHGIQLQSGRLVIPAYTYYIPSWFFCFQLPCKTRPHSLMIYSDDLGVTWHHGRLIRPMVTVECEVAEVTGRAGHPVLYCSARTPNRCRAEALSTDHGEGFQRLALSRQLCEPPHGCQGSVVSFRPLEIPHRCQDSSSKDAPTIQQSSPGSSLRLEEEAGTPSESWLLYSHPTSRKQRVDLGIYLNQTPLEAACWSRPWILHCGPCGYSDLAALEEEGLFGCLFECGTKQECEQIAFRLFTHREILSHLQGDCTSPGRNPSQFKSN
As to B3, the Michaelis constant (Km) in data set [3] worked out at 45.6 µM.
